Experimental data from PMC5481817, “Developing Targeted Hybrid Imaging Probes by Chelator Scaffolding” (Bioconjugate chemistry, 2017).
Like-named read-outs stand apart in the source and are kept apart here.

Columns and labels:
[1] = test system: mice bearing U-87MG tumor xenografts; assay: Static micro-PET/CT imaging, U-87MG xenografts; assay type: in vivo, mouse; details: static PET, 30 and 90 min p.i.
Experimental: All animal experiments were conducted in accordance with regulations and guidelines of the Czech Animal Protection Act (No. 246/1992), and with the approval of the Czech Ministry of Education, Youth, and Sports (MSMT-22421/2013–12), and the institutional Animal Welfare Committee of the Faculty of Medicine and Dentistry of Palacky University in Olomouc. The studies were performed using female 8–10-week-old athymic BALB/c nude mice (Envigo, Horst, The Netherlands). […]
Tumor xenografts were established near the front shoulder of mice by subcutaneous injection of 5 × 10^6 cells (U-87 MG) or 2 × 10^6 cells (A431-CCK2R) and the same amount of A431-mock cells as a control in 200 μL appropriate medium and Matrigel (1:1). […] Tumors, blood, muscle tissue, and organs were extracted, weighed, and activity uptake of the samples was measured in the gamma counter. Results were expressed as percentage of injected dose per gram tissue (% ID/g). […] After reconstruction, acquired data was viewed and analyzed with PMOD software (PMOD Technologies Ltd., Zurich, Switzerland). […] Near-infrared in vivo fluorescence imaging was performed with an In-Vivo MS FX PRO small animal imaging system (Bruker Biospin Corporation, Woodbridge, CT, USA). […] An appropriate filter set (excitation = 730 nm and emission = 790 nm) was used for acquiring the Sulfo-Cy7-FSC-peptide - fluorescence in vivo. […]

[2] = mouse, in vivo
Experimental: (§1) All animal experiments were conducted in accordance with regulations and guidelines of the Czech Animal Protection Act (No. 246/1992), and with the approval of the Czech Ministry of Education, Youth, and Sports (MSMT-22421/2013–12), and the institutional Animal Welfare Committee of the Faculty of Medicine and Dentistry of Palacky University in Olomouc. The studies were performed using female 8–10-week-old athymic BALB/c nude mice (Envigo, Horst, The Netherlands). The number of animals was reduced as much as possible (n = 3 per group and time point for all experiments) and retro-orbital (r.o.) tracer injection as well as small animal imaging was carried out under 2% isoflurane anesthesia (FORANE, Abbott Laboratories, Abbott Park, IL, USA) to minimize animal suffering.
(§2) Tumor xenografts were established near the front shoulder of mice by subcutaneous injection of 5 × 10^6 cells (U-87 MG) or 2 × 10^6 cells (A431-CCK2R) and the same amount of A431-mock cells as a control in 200 μL appropriate medium and Matrigel (1:1). The tumors were allowed to grow until they had reached a volume of 0.2 to 0.5 cm^3. To evaluate ex vivo biodistribution mice were injected with 1–2 MBq (0.05–0.14 nmol) of radiotracer per mouse and mice were sacrificed by cervical dislocation after 30 and 90 min for [^68Ga]Sulfo-Cy7-FSC-RGD and after 1 and 2 h in the case of [^68Ga]Sulfo-Cy7-FSC-MG. Tumors, blood, muscle tissue, and organs were extracted, weighed, and activity uptake of the samples was measured in the gamma counter. Results were expressed as percentage of injected dose per gram tissue (% ID/g). In vivo PET and CT images were acquired with an Albira PET/SPECT/CT small animal imaging system (Bruker Biospin Corporation, Wood-bridge, CT, USA). Xenograft bearing mice were injected with radiolabeled peptides in a dose of ~5 MBq corresponding to 1–2 μg (0.25–0.58 nmol) of peptide per mouse. Anaesthetized animals were positioned prone head first in the Albira system before the start of imaging. Static PET/CT imaging was carried out 30 and 90 min p.i. for [^68Ga]Sulfo-Cy7-FSC-RGD. Animals injected with [^68Ga]Sulfo-Cy7-FSC-MG were imaged 1 and 2 h p.i. A 10 min PET scan (axial FOV 148 mm) was performed, followed by a CT scan (axial FOV 65 mm, 45 kVp, 400 μA, at 400 projections). Scans were reconstructed with the Albira software (Bruker Biospin Corporation, Woodbridge, CT, USA) using the maximum likelihood expectation maximization (MLEM) and filtered backprojection (FBP) algorithms. After reconstruction, acquired data was viewed and analyzed with PMOD software (PMOD Technologies Ltd., Zurich, Switzerland). 3D images were obtained using VolView software (Kitware, Clifton Park, NY, USA). Near-infrared in vivo fluorescence imaging was performed with an In-Vivo MS FX PRO small animal imaging system (Bruker Biospin Corporation, Woodbridge, CT, USA). Sulfo-Cy7-FSC-MG and Sulfo-Cy7-FSC-RGD were injected in a dose of 0.25–0.58 nmol per mouse and after supine head first positioning, imaging was conducted in various time intervals up to 72 h p.i. An appropriate filter set (excitation = 730 nm and emission = 790 nm) was used for acquiring the Sulfo-Cy7-FSC-peptide - fluorescence in vivo. Identical illumination settings (acquisition time = 15 s, filters = 730/790 nm, f-stop = 2.8, field of view = 100 mm, and binning = 4 × 4) were used for acquiring all images, and fluorescence emission was normalized to photons/s/mm^2. Images were acquired and analyzed using Bruker MI SE software (Bruker Biospin Corporation, Woodbridge, CT, USA).

[3] = test system: U-87MG (αvβ3 positive) xenograft bearing mice; details: mouse, in vivo, 1.5 h
Experimental: as §1, §2

[4] = test system: M21 (αvβ3 positive) cells; assay: M21 internalization assay (radioligand); assay type: cell-based, human; details: for Cell uptake (internalized): M21 (αvβ3 positive); for membrane bound amount of activity: M21 cells
Experimental: (§3) Integrin αvβ3 positive (M21) and αvβ3 negative (M21-L) cells were diluted with incubation medium, i.e., corresponding growth medium containing 1% glutamine (m/v), 1% BSA (m/v), CaCl2 (1 mM), MgCl2 (1 mM), and MnCl2 (10 mM) to a concentration of 2.0 × 10^6 cells/ml. Aliquots of one milliliter were transferred to Eppendorf tubes and six technical replicates for each cell line were incubated for 1 h at 37 °C. Subsequently 50 μL of the radiolabeled ligand (1.2 nM [^68Ga]Sulfo-Cy7-FSC-RGD in PBS/0.5% BSA, approximately 2 × 10^4 cpm) were added and incubated at 37 °C for further 60 and 120 min, respectively. After incubation the tubes were centrifuged (2 min, 5000 rpm; Eppendorf Centrifuge 5424, Hamburg, Germany) and the supernatant was removed and collected. Hereafter the cells were washed twice with 1 mL ice-cold washing buffer (10 mM TRIS-buffered saline, pH 7.3) and the fractions were combined with the supernatant (wash fraction). To determine the membrane bound tracer amount cells were washed two times with 1 mL acetate buffer (20 mM, pH 4.5, 10 min at 37 °C) and the supernatant was collected. The residual cells were lysed by adding 1 mL of 2 M NaOH twice and collected in plastic vials (internalized fraction). The activity of all collected vials was measured in the γ-counter and compared to standard solution (50 μL radiotracer).

[5] = in vitro; assay type: in vitro ADME, human
Experimental: (§4) [^68Ga]Sulfo-Cy7-FSC-MG and [^68Ga]Sulfo-Cy7-FSC-RGD (6 MBq) were diluted with phosphate buffered saline to a concentration of 1 μM. Subsequently 50 μL of this solution was added to six Eppendorf tubes containing 450 μL PBS and 500 μL octanol. The mixture was vortexed (1400 rpm) at RT for 15 min using a MS 3 basic vortexer (IKA, Staufen, Germany) followed by centrifugation for 2 min at 4500 rpm. Aliquots of 100 μL of both phases were transferred to plastic vials, measured in the γ-counter and logD values were calculated. For stability testing, radiolabeled tracers were diluted with 450 μL fresh human serum and 450 μL PBS as control to a concentration of 2 μM followed by incubation at 37 °C. After 1, 2, and 4 h (n = 3) 50 μL aliquots were precipitated with acetonitrile (1:1) and centrifuged for 2 min at 14 × 10^3 rpm. The supernatant was analyzed by radio-RP-HPLC to evaluate for decomposition and corresponding chromatograms are shown in Supporting Information. For protein binding measurement aliquots were analyzed by size exclusion chromatography using MicroSpin G-50 Columns (Sephadex G-50, GE Healthcare, Vienna, Austria) in triplicates. […] Column and eluate were measured in the γ-counter and percentages of nonprotein bound radiolabeled peptide (column) and protein bound radiotracer (eluate) were calculated.

[6] = physchem; assay type: physicochemical; details: buffer or solvent
Experimental: [^68Ga]Sulfo-Cy7-FSC-MG and [^68Ga]Sulfo-Cy7-FSC-RGD (6 MBq) were diluted with phosphate buffered saline to a concentration of 1 μM. Subsequently 50 μL of this solution was added to six Eppendorf tubes containing 450 μL PBS and 500 μL octanol. The mixture was vortexed (1400 rpm) at RT for 15 min using a MS 3 basic vortexer (IKA, Staufen, Germany) followed by centrifugation for 2 min at 4500 rpm. Aliquots of 100 μL of both phases were transferred to plastic vials, measured in the γ-counter and logD values were calculated. For stability testing, radiolabeled tracers were diluted with 450 μL fresh human serum and 450 μL PBS as control to a concentration of 2 μM followed by incubation at 37 °C. After 1, 2, and 4 h (n = 3) 50 μL aliquots were precipitated with acetonitrile (1:1) and centrifuged for 2 min at 14 × 10^3 rpm. The supernatant was analyzed by radio-RP-HPLC to evaluate for decomposition and corresponding chromatograms are shown in Supporting Information. For protein binding measurement aliquots were analyzed by size exclusion chromatography using MicroSpin G-50 Columns (Sephadex G-50, GE Healthcare, Vienna, Austria) in triplicates. First, the columns were centrifuged at 750 rcf for 1 min to remove the storage buffer. After adding 25 μL of incubation solution columns were centrifuged again for 2 min with 2000 rcf. Column and eluate were measured in the γ-counter and percentages of nonprotein bound radiolabeled peptide (column) and protein bound radiotracer (eluate) were calculated.

[7] = assay type: physicochemical; details: pH 7.4
Experimental: as §4

[8] = test system: M21-L (αvβ3 negative) cells; assay: M21-L internalization assay (radioligand); assay type: cell-based, human; details: for Cell uptake (internalized): M21-L (αvβ3 negative); for unspecific membrane bound activity: M21-L cells
Experimental: as §3

[9] = 87 mg, accumulation in tumor tissue

C/C1=C/C(=O)N(O)CCC[C@H](NC(=O)CCN2C(=O)CC(SCCOCCOCCOCCOCCC(=O)NCCCC[C@@H]3NC(=O)[C@@H](Cc4ccccc4)NC(=O)[C@H](CC(=O)O)NC(=O)CNC(=O)[C@H](CCCNC(=N)N)NC3=O)C2=O)C(=O)OCC/C(C)=C\C(=O)N(O)CCC[C@H](NC(=O)CCN2C(=O)CC(SCCOCCOCCOCCOCCC(=O)NCCCC[C@@H]3NC(=O)[C@@H](Cc4ccccc4)NC(=O)[C@H](CC(=O)O)NC(=O)CNC(=O)[C@H](CCCNC(=N)N)NC3=O)C2=O)C(=O)OCC/C(C)=C\C(=O)N(O)CCC[C@H](NC(=O)CCCCC[N+]2=C(C=CC3=CC(=CC=C4N(C)c5ccc(S(=O)(=O)[O-])cc5C4(C)C)CCC3)C(C)(C)c3cc(S(=O)(=O)O)ccc32)C(=O)OCC1 (stereo partly drawn) [[^68Ga]Sulfo-Cy7-FSC-RGD, metal not drawn]
PET tumor visualization [1]: tumor was visualized clearly
tissue uptake at 0.5 h [2, 9]: 10.1 ± 0.8 %ID/g
tissue uptake at 1.5 h [2, 9]: 7.5 ± 0.8 %ID/g
tissue uptake at 0.5 h ([2]; blood): 4 ± 0.4 %ID/g
tissue uptake at 1.5 h ([2]; blood): 1.3 ± 0.2 %ID/g
tissue uptake at 1.5 h ([2]; kidney retention): 54.8 ± 1.1 %ID/g
kidney retention [3]: 57.3 ± 4.6 % ID/g
Cell uptake (internalized) ([4]; 1 h): 2.45 ± 0.36%
Cell uptake (internalized) ([4]; 2 h): 4.41 ± 1.17%
membrane bound amount of activity ([4]; 1 h): 1.09 ± 0.23%
membrane bound amount of activity ([4]; 2 h): 1.79 ± 0.59%
Binding to serum proteins [5]: approximately 20%
remaining at 1 h, 2 μM [6]: 95.7 ± 0.1%
remaining at 2 h, 2 μM [6]: 94.7 ± 0.6%
remaining at 4 h, 2 μM [6]: 94.4 ± 0.3%
logD [7]: -2.3 ± 0.16
Cell uptake (internalized) ([8]; 1 h): 0.43 ± 0.25%
Cell uptake (internalized) ([8]; 2 h): 0.71 ± 0.66%
unspecific membrane bound activity ([8]; 1 h): 0.29 ± 0.12%
unspecific membrane bound activity ([8]; 2 h): 0.80 ± 0.62%
cell uptake on αvβ3 negative cells relative to αvβ3 positive cells (reduced to) ([8]; M21-L vs M21, 1 and 2 h): approximately 1/6
